Reference: patent US20180002740

Tested on: VanR (phosphorylated) (Streptomyces coelicolor M600)
Test: cell_activity
Settings: indirect: growth arrest about 18 h with 20 ug/ml vancomycin; 64 pM little effect

ATATCTATATGAAGCGACGTGGTCGATGAGCCGCAGCGTTTTCGCTGCGGCTCATCGACCACGTCGCTTCATATAGATATAGTTTTCT [vanH5 dumbbell decoy]
activity: 256 pM
